Laboratory results published in patent US9657110B2, “Polypeptides and use thereof” (ASTON UNIVERSITY, priority 2011, dated 2017).

Key:
[1] = test system: Human osteoblasts (HOB) cells; assay: Cell attachment on wells coated with BSA-conjugated extended P1 peptide, BSA or FN; type: cell-based; details: soluble peptide 100 μg/ml, compared to RAD control peptide
Protocol: 96-Well ELISA plates were coated with 1 μg/ml of bovine serum albumin (BSA) conjugated peptide (“Extended P1”: […]c; SEQ ID NO:29) conjugated through its C-terminal cysteine via Beta-maleimidopropionic acid N-hydroxysuccinimide ester (MPS). Peptides were dissolved in NaHCO3/Na2CO3 coating buffer, pH 9.6 and plates coated at 4° C. for overnight. Wells coated with 1 μg/ml BSA NaHCO3/Na2CO3 coating buffer or 5 μg/ml FN in 50 mM Tris-HCl, pH 7.4 were used as the control coating materials. Human osteoblasts (HOB) cells in suspension was treated with 100 μg/ml RAD (GRADS; SEQ ID NO:9) or RGD (GRGDTP; SEQ ID NO:8) peptide for 20 min, the cells (3×10^4/well) were seeded into the wells, previously washed with 50 mM Tris-HCl, pH 7.4, and allowed to settle for 30 min. Attached cells were washed once with PBS, pH 7.4, and then fixed with 3.7% paraformaldehyde, further permeabilized with 0.1% (v/v) Triton® X-100 detergent in PBS, and co-stained with May-Grunwald and Giemsa stains as described previously.

[2] = Binding of TG2 to heparin SEPHAROSE, elution with NaCl gradient; details: compared with wt TG2
Protocol: HEK cells, transiently transfected with wild-type and mutant TG2 were washed twice with ice cold PBS, pH 7.4 and lysed by the addition of 150 μl of 20 mM Tris-HCl pH 7.4, 10 mM EGTA, 2 mM EDTA, 1 mM NaF and 1 mM Na3VO4. After clarification by centrifugation, lysates were mixed with 450 μl of 50 mM Tris-HCl, 1 mM EDTA, 1 mM DTT, pH 7.5 and applied to a 5 ml Heparin SEPHAROSE® column (GE Healthcare) equilibrated in 50 mM Tris-HCl, 1 mM EDTA, 1 mM DTT pH 7.5 (buffer) at a flow rate of 1 ml/min. For the analysis of GTP-bound TG2 (closed conformation), lysates were pre-incubated for 1 h at room temperature with 0.5 mM GTP in 50 mM Tris-HCl, 2 mM MgCl2, 1 mM EDTA, 1 mM DTT pH 7.5. For the analysis of inhibitor-reacted TG2 (open conformation), lysates were incubated with 0.5 mM of irreversible inhibitor R281 (Griffin et al., 2008) and 10 mM CaCl2. The column was washed with 25 ml of buffer and protein was eluted with a linear gradient of increasing NaCl concentration (0-1M) in buffer. Fractions were assayed for TG2 activity and analysed for the presence of TG2 antigen by SDS-PAGE and Western blotting using CUB7402.

[3] = test system: FN; assay: Measurement of TG2 binding to FN by ELISA (cell lysates); details: lysates of transfected HEK293T/17 cells, normalised for expression
Protocol: Microtitre 96 well plates were coated with 50 μl of 5 μg/ml FN in 50 mM Tris-HCl, pH 7.4 at 4° C. overnight. The wells were blocked for 30 min with 5% (w/v) fat-free milk in PBS, pH 7.4 and washed twice with PBS-TWEEN® detergent, pH 7.4 and once with PBS, pH 7.4. Aliquots (100 μl) of cell lysate containing 60 μg protein were added to the FN-coated wells and incubated for 1 h at 37° C. After washing three times with PBS, pH 7.4, wells were blocked with 100 μl 3% BSA in PBS, pH 7.4 (blocking buffer) for 30 min at room temperature and then incubated with 100 μl Cub7402 (1:1000 dilution in blocking buffer) for 2 h at 37° C. After washing three times with PBS, pH 7.4, the wells were incubated with 100 μl rabbit anti-mouse IgG-HRP conjugated antibody (1:1000 dilution in blocking buffer) for 2 h at 37° C. HRP was detected by the addition of 100 μl of o-phenylenediamine substrate solution (SigmaFast […]™ OPD, Sigma). Colour development was terminated by the addition of 50 μl of 2.5M H2SO4 and absorbance at 490 nm was measured. The amount of TG2/mutant TG2 binding to the FN was normalised between samples by using the densitometry values from Western blotting for the TG protein found in each of the cell lysates used. α-Tubulin was used to normalise for any differences in protein loading.

[4] = test system: NIH 3T3 cells; assay: Detection of TG2 at cell surface (biotinylation), in ECM and in culture medium of transfected cells; type: cell-based, mouse; details: transfected NIH 3T3 cells, biotinylation and Western blot, vs wild-type TG2
Protocol: Cell surface proteins were labelled by biotinylation as described previously (Wang et al., 2010). Briefly, cell monolayers were rinsed three times with ice-cold PBS pH 8.0 and labelled with 0.8 mM sulfo-NHS-LC-biotin dissolved in PBS pH 8.0 at 4° C. for 20 min. Cells were then washed with 50 mM Tris-HCl, pH 8.0 and lysed with 1% SDS at 4° C. in PBS pH8.0. Following denaturation at 95° C., cell lysates were clarified by centrifugation at 14,000×g at 20° C. and 200 μg of protein was incubated overnight at 4° C. with NEUTRAVIDIN® avidin protein-Agarose resin. After washing three times with PBS pH 8.0, the biotin-labelled proteins were dissolved in 2× Laemmli buffer separated by SDS-PAGE and subjected to Western blotting.
Following transfection, cells were incubated for 24 h with 10% (v/v) serum, which was replaced with 1% (v/v) serum and TG2 expression was allowed to proceed for a further 48 h. Proteins from 1 ml of medium were precipitated by the addition of ice cold 20% (w/v) trichloroacetic acid (TCA) to a final concentration of 10% (w/v) Pelleted proteins were then washed once with ice cold 10% (w/v) TCA, ethanol-acetone (1:1) and acetone, and resuspended in 2× Laemmli buffer (Sigma-Aldrich, UK) and analysed by SDS-PAGE and Western blot analysis using monoclonal anti-TG2 antibody (Cub7402). The remaining cells were detached with 2 mM EDTA in PBS, pH 7.4 and the ECM was extracted with 0.1% (w/v) deoxycholate in PBS, pH 7.4. The residual deoxycholate-insoluble ECM proteins were dissolved in 2× Laemmli buffer for further analysis by SDS-PAGE and Western blotting using Cub7402.

Molecule: GRGDTP [RGD peptide, synthetic RGD peptide from Calbiochem]
- block of cell attachment on the FN matrix [1]: around 50%

B1: D94A, D97A: TG2 fibronectin binding site mutant (protein, UniProt P21980 2-687, looked up, variant D94A D97A)
Protein-glutamine …: AEELVLERCDLELETNGRDHHTADLCREKLVVRRGQPFWLTLHFEGRNYEASVDSLTFSVVTGPAPSQEAGTKARFPLRDAVEEGDWTATVVAQQACTLSLQLTTPANAPIGLYRLSLEASTGYQGSSFVLGHFILLFNAWCPADAVYLDSEEERQEYVLTQQGFIYQGSAKFIKNIPWNFGQFEDGILDICLILLDVNPKFLKNAGRDCSRRSSPVYVGRVVSGMVNCNDDQGVLLGRWDNNYGDGVSPMSWIGSVDILRRWKNHGCQRVKYGQCWVFAAVACTVLRCLGIPTRVVTNYNSAHDQNSNLLIEYFRNEFGEIQGDKSEMIWNFHCWVESWMTRPDLQPGYEGWQALDPTPQEKSEGTYCCGPVPVRAIKEGDLSTKYDAPFVFAEVNADVVDWIQQDDGSVHKSINRSLIVGLKISTKSVGRDEREDITHTYKYPEGSSEEREAFTRANHLNKLAEKEETGMAMRIRVGQSMNMGSDFDVFAHITNNTAEEYVCRLLLCARTVSYNGILGPECGTKYLLNLNLEPFSEKSVPLCILYEKYRDCLTESNLIKVRALLVEPVINSYLLAERDLYLENPEIKIRILGEPKQKRKLVAEVSLQNPLPVALEGCTFTVEGAGLTEEQKTVEIPDPVEAGEEVKVRMDLLPLHMGLHKLVVNFESDKLKAVKGFRNVIIGPA
- binding to heparin SEPHAROSE (in words) [2]: comparable elution profile to the wt enzyme
- binding to FN compared to wild type TG2 [3]: approximately 50%
- presence on the cell surface [4]: greater levels
